Data from PMC6128766 (Nature structural & molecular biology, 2018).

Target: the molecule itself
Assay: cryo-EM structure

B1: TRPV3(Y564A) (natural protein, mouse, UniProt Q8K424 1-791, looked up)
chain: MNAHSKEMAPLMGKRTTAPGGNPVVLTEKRPADLTPTKKSAHFFLEIEGFEPNPTVTKTSPPIFSKPMDSNIRQCLSGNCDDMDSPQSPQDDVTETPSNPNSPSANLAKEEQRQKKKRLKKRIFAAVSEGCVEELRELLQDLQDLCRRRRGLDVPDFLMHKLTASDTGKTCLMKALLNINPNTKEIVRILLAFAEENDILDRFINAEYTEEAYEGQTALNIAIERRQGDITAVLIAAGADVNAHAKGVFFNPKYQHEGFYFGETPLALAACTNQPEIVQLLMENEQTDITSQDSRGNNILHALVTVAEDFKTQNDFVKRMYDMILLRSGNWELETMRNNDGLTPLQLAAKMGKAEILKYILSREIKEKPLRSLSRKFTDWAYGPVSSSLYDLTNVDTTTDNSVLEIIVYNTNIDNRHEMLTLEPLHTLLHTKWKKFAKYMFFLSFCFYFFYNITLTLVSYYRPREDEDLPHPLALTHKMSWLQLLGRMFVLIWATCISVKEGIAIFLLRPSDLQSILSDAWFHFVFFVQAVLVILSVFLYLFAYKEYLACLVLAMALGWANMLAYTRGFQSMGMYSVMIQKVILHDVLKFLFVYILFLLGFGVALASLIEKCSKDKKDCSSYGSFSDAVLELFKLTIGLGDLNIQQNSTYPILFLFLLITYVILTFVLLLNMLIALMGETVENVSKESERIWRLQRARTILEFEKMLPEWLRSRFRMGELCKVADEDFRLCLRINEVKWTEWKTHVSFLNEDPGPIRRTADLNKIQDSSRSNSKTTLYAFDELDEFPETSV
B1: binds.
